# Measurements taken from article PMC8132391.
# Assays:
# [1] = biological target: all2909, COG4337 protein of Anabaena sp. PCC 7120, without N-terminal leader (Anabaena sp. PCC 7120) (UniProt Q8YT18); assay: SEC-MALS; Superdex 200 increase 10/300 GL, 293 K, 20 mM Tris-HCl pH 8.0, 100 mM NaCl; Bn86287 3.7 mg/ml and all2909 4.9 mg/ml, 30 ul injected
# [2] = biological target: Bn86287 (104-607 amino acids), COG4337 protein of Bigelowiella natans (Bigelowiella natans); assay: as above
stoichiometry N [1],stoichiometry N [2],Substance
4,–,"all2909, COG4337 protein of Anabaena sp. PCC 7120, without N-terminal leader (from UniProt Q8YT18 31-205) (enzyme)"
–,2,"Bn86287 (104-607 amino acids), COG4337 protein of Bigelowiella natans (enzyme)"
